Results: the Human Domainome abundance scans (Beltran et al. 2025)

B1: Zinc finger protein ZIC 2, residues 250 to 295; numbered along this chain, O95409 (parent)
chain: QCIKQELICKWIDPEQLSNPKKSCNKTFSTMHELVTHVSVEHVGGP

Variants of: B1
Test: abundance fitness (aPCA) (normalised: wild type 0, dead -1); higher = more abundant; growth selection in yeast, the domain comes from the species named
Conditions: Homo sapiens

Abundance fitness of substitutions, site by site:
D13: A -0.101; W -0.311; V -0.434; C -0.176; I -0.559; G -0.328; K -0.66; H -0.216
W11: F 0.187; A -0.223; K 0.216; R 0.037; G -0.089; S -0.212; D -0.647; N -0.216; V -0.115
V35: E 0.529; G 0.118; R 0.193; F 0.054
S29: G 0.03; E 0.425; R 0.236; L 0.07; W -0.386; P 0.209
T27: Q 0.119; E 0.188; I 0.381; N 0.001; Y -0.818; C -0.17; W -0.296; M 0.182; L -0.19; F 0.174
M31: D 0.334; C -0.569
P46: K 0.593; W -0.709; T -0.673
E41: P -1.04; M -0.338; R -0.377; N -0.044; V -0.125
H42: M -0.642; F -1.04; D -1.01; T -0.89; S -0.854; Y -0.971; P -1.13; E -1.07
K21: M -0.203; N 0.314; Q 0.126; H 0.016; I -0.153; S -0.178; R -0.302; A -0.008
L7: P 0.194; D -0.375; V 0.08; H 0.306; Q 0.401; T 0.001
P14: Y -0.499; V -0.369; C -0.33; K -0.885; F -0.788; W -0.484; R -0.2
E15: W -0.206; V -0.137; H -0.233; K 0.077; I 0.051; P -0.388; G -0.145; S 0.018
V43: Y 0.485; W -0.332; G 0.247; M -0.126; E 0.587; H 0.012; T 0.108
N25: F -0.517; T 0.072; H 0.183; V -0.302; Y -0.33; R 0.281; M -0.019; P 0.199; I -0.469
L34: E -0.717; G -0.618; R -0.705; C -0.797; D -0.828; S -0.617; M 0.087; A -0.641; N -0.733; F -0.039; P -0.371; V -0.615; K -0.23
H37: Q -0.93; T -0.903; S -0.856; R -0.789; I -1; W -0.953; V -0.904
I3: W -0.376; D -0.541; Q 0.224; K -0.652; A -0.568; V -0.248; C -0.673; H -0.518; N -0.602; Y -0.151; F -0.57; S -0.526; R -0.61
T30: V -0.429; E -0.316; N 0.317; W -0.661; H -0.596; Y -0.96; A 0.122; G -0.178
C9: V -0.841; I -0.96; W -1.03; S -0.78; D -0.758
V40: M 0.082; L -0.363; A -0.03; C -0.457; T -0.073; E 0.062
Q1: L -0.356; W -0.321; A 0.373; S 0.503; V -0.349; M -0.131
P20: Y -0.621; A -0.235; E -0.046; D 0.057; K -0.233; L -0.184
C2: N -0.176; E 0.123; F -0.182; S 0.047; G 0.259; V 0.419; R -0.129
Q5: E 0.242; S -0.24; Y -0.641; D 0.366; P 0.037; C -0.733; R -0.014; G -0.283
I12: Y -0.175; S -0.022; E 0.111; R -0.228; N -0.417; F -0.179
K4: C -0.411; Q -0.458; Y -0.671; H -0.816; F -0.645; G -0.309; V -0.513; T -0.304; S -0.204; A -0.187
S39: A 0.129; Q 0.296; F -0.663; D 0.414; I -0.681; Y -0.873; H -0.241
E33: N -0.726; S -0.452; W -0.979; A -0.342; H -0.434; I -0.932; Y -1.01
E6: F -1.04; C -0.632; R -0.312; L -0.974; V -0.778; Q -0.207; W -0.767; K -0.687; A -0.351
N19: K -0.012; S -0.079; I 0.164; D -0.092; V 0.007; F -0.166; W -0.74
Q16: N -0.414; P -0.285; G -0.251; M -0.25; K -0.335; L 0.068; R -0.432
G44: P -0.217; K -0.142; F -0.384; I -0.363; C -0.062; Y -0.357; W -0.082; L -0.641
F28: Q -0.705; R -0.84; G -0.598; L -0.668; M -0.683; V -0.724; E -0.547; C -0.725; Y -0.724
I8: S 0.02; G 0.036; N 0.586; Q 0.171; D 0.384; M 0.031; K 0.4
K22: M -0.126; Q -0.166; D -0.035; V 0.037; S -0.102; G -0.126; N 0.224; W -0.404; L -0.089; P -0.095; A -0.175; R 0.124; T -0.015
S18: N 0.286; F -0.15; Y -0.317; L -0.145; A -0.348; P -0.171
V38: F 0.08; Q 0.43; N 0.035; G -0.095; W 0.82; R 0.607; M 0.278; E 0.518; T 0.052; A -0.161; C -0.066
S23: A 0.316; V 0.107; K 0.309; M 0.246; R 0.566; Y 0.079; T 0.193
H32: T 0.037; P 0.171; K -0.011; C -0.172; D 0.092; I -0.211; A 0.14; W 0.163
K10: I -0.484; W -0.277; F -0.506; E 0.157; Y 0.165; N 0.394
T36: K 0.141; H -0.283; N -0.232; W -0.081; S 0.018; F -0.483; C -0.236
G45: V -0.242; S -0.244; L -0.149; Q -0.217; P -0.195; M -0.382; H -0.443; F -0.202
L17: P 0.101; E 0.306; Q -0.173; D 0.176; Y -0.564; T 0.035; A 0.084
C24: Y -0.994; M -0.906; E -0.488; S -0.766; Q -0.764
